Reference: article PMC6857237

Experiments:
[1] = target: Olfm1^BMY (olfactomedin-1 natural short isoform BMY, residues 17–153), disulfide-linked tetramer (mouse (Mus musculus)); assay: non-reducing SDS-PAGE; Coomassie-stained SDS-PAGE of purified protein with and without DTT; covalent (disulfide-linked) oligomeric state
[2] = target: Olfm1^BMY (olfactomedin-1 natural short isoform BMY, residues 17–153), disulfide-linked tetramer (mouse (Mus musculus)); assay: SEC-MALS; analytical Superdex200 Increase 10/300, room temperature, SEC buffer (150 mM NaCl, 2 mM CaCl2, 20 mM HEPES pH 7.5), 0.5 mL/min; aldolase as calibration standard
[3] = target: Olfm1^BMY (olfactomedin-1 natural short isoform BMY, residues 17–153), disulfide-linked tetramer (mouse (Mus musculus)); assay: SAXS; ESRF BM29, 0.615 mg/mL in SEC buffer (150 mM NaCl, 2 mM CaCl2, 20 mM HEPES pH 7.5), 277 K; mass from I0

Chain of Olfm1^BMY (olfactomedin-1 natural short isoform BMY, residues 17–153), disulfide-linked tetramer (natural protein) (O88998 17-485): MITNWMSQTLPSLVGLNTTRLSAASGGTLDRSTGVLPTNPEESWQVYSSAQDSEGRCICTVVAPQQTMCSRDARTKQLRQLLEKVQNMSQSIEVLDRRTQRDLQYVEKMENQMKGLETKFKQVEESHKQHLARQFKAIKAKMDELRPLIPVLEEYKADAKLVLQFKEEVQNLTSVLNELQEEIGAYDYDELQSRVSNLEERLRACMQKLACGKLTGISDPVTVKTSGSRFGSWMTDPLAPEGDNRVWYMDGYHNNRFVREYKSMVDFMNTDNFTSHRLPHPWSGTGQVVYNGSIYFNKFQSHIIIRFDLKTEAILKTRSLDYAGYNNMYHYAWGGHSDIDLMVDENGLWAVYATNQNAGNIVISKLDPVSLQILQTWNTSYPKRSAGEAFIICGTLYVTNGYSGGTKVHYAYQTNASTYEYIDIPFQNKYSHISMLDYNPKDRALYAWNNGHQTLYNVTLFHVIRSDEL

stoichiometry N [1]: 4
stoichiometry N [2]: 4
stoichiometry N [3]: 4
Substance: Olfm1^BMY (olfactomedin-1 natural short isoform BMY, residues 17–153), disulfide-linked tetramer (natural protein)
